According to article PMC3366936:

Biological target: OPTN Δ1-394 in pCMV-BD (mammalian two-hybrid fusion) (UniProt Q96CV9)
Experiment: mammalian two-hybrid (luciferase reporter)
Parameters: unit not given here
Conditions: HEK293 cells; 48 h after transfection; n = 3; parent: est. 6.5; read off a plot

Chain of UniProt Q96CV9 (Q96CV9 395-577, stated change not applied): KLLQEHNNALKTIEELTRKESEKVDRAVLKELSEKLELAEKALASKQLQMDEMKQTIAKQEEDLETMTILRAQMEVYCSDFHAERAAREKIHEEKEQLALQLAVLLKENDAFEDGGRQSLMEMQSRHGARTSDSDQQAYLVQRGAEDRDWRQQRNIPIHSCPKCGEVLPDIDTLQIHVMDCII

| Substance | response |
| --- | --- |
| E3-14.7K wild type in pCMV-AD (mammalian two-hybrid fusion) E27D; R28Y; E29K; R30D; L31E | 4.5 |
| E3-14.7K wild type in pCMV-AD (mammalian two-hybrid fusion) H42D; Q43Y; C44K; K45D; R46E | 0.1 |
| E3-14.7K wild type in pCMV-AD (mammalian two-hybrid fusion) H102D; F103Y; P104K; Y105D; Q106E | 11 |
| E3-14.7K wild type in pCMV-AD (mammalian two-hybrid fusion) I12D; N13Y; T14K; E15D; Q16E | 4.6 |
| E3-14.7K wild type in pCMV-AD (mammalian two-hybrid fusion) L7D; E8Y; L9K; G11E | 6 |
| E3-14.7K wild type in pCMV-AD (mammalian two-hybrid fusion) M38Y; V39K; N40D; L41E | 2.2 |
| E3-14.7K wild type in pCMV-AD (mammalian two-hybrid fusion) M82D; V83Y; G84K; E85D; K86E | 0.2 |
| E3-14.7K wild type in pCMV-AD (mammalian two-hybrid fusion) P87D; I88Y; T89K; V90D; T91E | 0.6 |
| E3-14.7K wild type in pCMV-AD (mammalian two-hybrid fusion) R17D; L18Y; L19K; E20D; R21E | 2.8 |
| E3-14.7K wild type in pCMV-AD (mammalian two-hybrid fusion) R22D; K23Y; A24K; A25D; S26E | 2.9 |
| E3-14.7K wild type in pCMV-AD (mammalian two-hybrid fusion) T2D; E3Y; S4K; L5D; D6E | 5.1 |
| E3-14.7K wild type in pCMV-AD (mammalian two-hybrid fusion) T62D; T63Y; T64K; G65D; N66E | 0.5 |
